# Experiments:
# HeLa Kyoto [1] = assay: solubility in G1/S (NP-40 vs SDS abundance) (log2 ratio); higher = more soluble; details: cell cycle stage: G1/S
# HeLa Kyoto [2] = assay: solubility change mitosis vs G1/S (difference of NP-40 vs SDS log2 ratios) (log2 ratio difference); higher = more soluble in mitosis
# 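Wherever solubility change mitosis vs G1/S (difference of NP-40 vs SDS log2 ratios) is given: synchronized HeLa Kyoto cells (double thymidine block for G1/S, nocodazole release for mitosis), protein amounts in NP-40 versus SDS lysates quantified by mass spectrometry, three biological replicates.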
# 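Wherever solubility in G1/S (NP-40 vs SDS abundance) is given: HeLa Kyoto cells arrested at G1/S by double thymidine block, proteins quantified by TMT10plex mass spectrometry in mild NP-40 versus SDS extracts, three biological replicates.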
Sequence,solubility in G1/S (log2) (HeLa Kyoto [1]),solubility change mitosis (log2) (HeLa Kyoto [2])
MAAALPRTLGELQLYRILQKANLLSYFDAFIQQGGDDVQQLCEAGEEEFLEIMALVGMASKPLHVRRLQKALRDWVTNPGLFNQPLTSLPVSSIPIYKLPEGSPTWLGISCSSYERSSNAREPHLKIPKCAATTCVQSLGQGKSDVVGSLALQSVGESRLWQGHHATESEHSLSPADLGSPASPKESSEALDAAAALSVAECVERMAPTLPKSDLNEVKELLKTNKKLAKMIGHIFEMNDDDPHKEEEIRKYSAIYGRFDSKRKDGKHLTLHELTVNEAAAQLCVKDNALLTRRDELFALARQISREVTYKYTYRTTKSKCGERDELSPKRIKVEDGFPDFQDSVQTLFQQARAKSEELAALSSQQPEKVMAKQMEFLCNQAGYERLQHAERRLSAGLYRQSSEEHSPNGLTSDNSDGQGERPLNLRMPNLQNRQPHHFVVDGELSRLYPSEAKSHSSESLGILKDYPHSAFTLEKKVIKTEPEDSR [NAB1],0.187,0.105
MAAATVGRDTLPEHWSYGVCRDGRVFFINDQLRCTTWLHPRTGEPVNSGHMIRSDLPRGWEEGFTEEGASYFIDHNQQTTAFRHPVTGQFSPENSEFILQEEPNPHMSKQDRNQRPSSMVSETSTAGTASTLEAKPGPKIIKSSSKVHSFGKRDQAIRRNPNVPVVVRGWLHKQDSSGMRLWKRRWFVLADYCLFYYKDSREEAVLGSIPLPSYVISPVAPEDRISRKYSFKAVHTGMRALIYNSSTAGSQAEQSGMRTYYFSADTQEDMNAWVRAMNQAAQVLSRSSLKRDMEKVERQAVPQANHTESCHECGRVGPGHTRDCPHRGHDDIVNFERQEQEGEQYRSQRDPLEGKRDRSKARSPYSPAEEDALFMDLPTGPRGQQAQPQRAEKNGMLPASYGPGEQNGTGGYQRAFPPRTNPEKHSQRKSNLAQVEHWARAQKGDSRSLPLDQTLPRQGPGQSLSFPENYQTLPKSTRHPSGGSSPPPRNLPSDYKYAQDRASHLKMSSEERRAHRDGTVWQLYEWQQRQQFRHGSPTAPICLGSPEFTDQGRSRSMLEVPRSISVPPSPSDIPPPGPPRVFPPRRPHTPAERVTVKPPDQRRSVDISLGDSPRRARGHAVKNSSHVDRRSMPSMGYMTHTVSAPSLHGKSADDTYLQLKKDLEYLDLKMTGRDLLKDRSLKPVKIAESDTDVKLSIFCEQDRVLQDLEDKIRALKENKDQLESVLEVLHRQMEQYRDQPQHLEKIAYQQKLLQEDLVHIRAELSRESTEMENAWNEYLKLENDVEQLKQTLQEQHRRAFFFQEKSQIQKDLWRIEDVTAGLSANKENFRILVESVKNPERKTVPLFPHPPVPSLSTSESKPPPQPSPPTSPVRTPLEVRLFPQLQTYVPYRPHPPQLRKVTSPLQSPTKAKPKVEDEAPPRPPLPELYSPEDQPPAVPPLPREATIIRHTSVRGLKRQSDERKRDRELGQCVNGDSRVELRSYVSEPELATLSGDMAQPSLGLVGPESRYQTLPGRGLSGSTSRLQQSSTIAPYVTLRRGLNAESSKATFPRPKSALERLYSGDHQRGKMSAEEQLERMKRHQKALVRERKRTLGQGERTGLPSSRYLSRPLPGDLGSVC [PLEKHA7],-0.548,0.454
MAAELVEAKNMVMSFRVSDLQMLLGFVGRSKSGLKHELVTRALQLVQFDCSPELFKKIKELYETRYAKKNSEPAPQPHRPLDPLTMHSTYDRAGAVPRTPLAGPNIDYPVLYGKYLNGLGRLPAKTLKPEVRLVKLPFFNMLDELLKPTELVPQNNEKLQESPCIFALTPRQVELIRNSRELQPGVKAVQVVLRICYSDTSCPQEDQYPPNIAVKVNHSYCSVPGYYPSNKPGVEPKRPCRPINLTHLMYLSSATNRITVTWGNYGKSYSVALYLVRQLTSSELLQRLKTIGVKHPELCKALVKEKLRLDPDSEIATTGVRVSLICPLVKMRLSVPCRAETCAHLQCFDAVFYLQMNEKKPTWMCPVCDKPAPYDQLIIDGLLSKILSECEDADEIEYLVDGSWCPIRAEKERSCSPQGAILVLGPSDANGLLPAPSVNGSGALGSTGGGGPVGSMENGKPGADVVDLTLDSSSSSEDEEEEEEEEEDEDEEGPRPKRRCPFQKGLVPAC [PIAS4],0.228,-0.116
MAAGSDLLDEVFFNSEVDEKVVSDLVGSLESQLAASAAHHHHLAPRTPEVRAAAAGALGNHVVSGSPAGAAGAGPAAPAEGAPGAAPEPPPAGRARPGGGGPQRPGPPSPRRPLVPAGPAPPAAKLRPPPEGSAGSCAPVPAAAAVAAGPEPAPAGPAKPAGPAALAARAGPGPGPGPGPGPGPGPGKPAGPGAAQTLNGSAALLNSHHAAAPAVSLVNNGPAALLPLPKPAAPGTVIQTPPFVGAAAPPAPAAPSPPAAPAPAAPAAAPPPPPPAPATLARPPGHPAGPPTAAPAVPPPAAAQNGGSAGAAPAPAPAAGGPAGVSGQPGPGAAAAAPAPGVKAESPKRVVQAAPPAAQTLAASGPASTAASMVIGPTMQGALPSPAAVPPPAPGTPTGLPKGAAGAVTQSLSRTPTATTSGIRATLTPTVLAPRLPQPPQNPTNIQNFQLPPGMVLVRSENGQLLMIPQQALAQMQAQAHAQPQTTMAPRPATPTSAPPVQISTVQAPGTPIIARQVTPTTIIKQVSQAQTTVQPSATLQRSPGVQPQLVLGGAAQTASLGTATAVQTGTPQRTVPGATTTSSAATETMENVKKCKNFLSTLIKLASSGKQSTETAANVKELVQNLLDGKIEAEDFTSRLYRELNSSPQPYLVPFLKRSLPALRQLTPDSAAFIQQSQQQPPPPTSQATTALTAVVLSSSVQRTAGKTAATVTSALQPPVLSLTQPTQVGVGKQGQPTPLVIQQPPKPGALIRPPQVTLTQTPMVALRQPHNRIMLTTPQQIQLNPLQPVPVVKPAVLPGTKALSAVSAQAAAAQKNKLKEPGGGSFRDDDDINDVASMAGVNLSEESARILATNSELVGTLTRSCKDETFLLQAPLQRRILEIGKKHGITELHPDVVSYVSHATQQRLQNLVEKISETAQQKNFSYKDDDRYEQASDVRAQLKFFEQLDQIEKQRKDEQEREILMRAAKSRSRQEDPEQLRLKQKAKEMQQQELAQMRQRDANLTALAAIGPRKKRKVDCPGPGSGAEGSGPGSVVPGSSGVGTPRQFTRQRITRVNLRDLIFCLENERETSHSLLLYKAFLK [TAF4],0.132,0.0124
MAALAEEQTEVAVKLEPEGPPTLLPPQAGDGAGEGSGGTTNNGPNGGGGNVAASSSTGGDGGTPKPTVAVSAAAPAGAAPVPAAAPDAGAPHDRQTLLAVLQFLRQSKLREAEEALRREAGLLEEAVAGSGAPGEVDSAGAEVTSALLSRVTASAPGPAAPDPPGTGASGATVVSGSASGPAAPGKVGSVAVEDQPDVSAVLSAYNQQGDPTMYEEYYSGLKHFIECSLDCHRAELSQLFYPLFVHMYLELVYNQHENEAKSFFEKFHGDQECYYQDDLRVLSSLTKKEHMKGNETMLDFRTSKFVLRISRDSYQLLKRHLQEKQNNQIWNIVQEHLYIDIFDGMPRSKQQIDAMVGSLAGEAKREANKSKVFFGLLKEPEIEVPLDDEDEEGENEEGKPKKKKPKKDSIGSKSKKQDPNAPPQNRIPLPELKDSDKLDKIMNMKETTKRVRLGPDCLPSICFYTFLNAYQGLTAVDVTDDSSLIAGGFADSTVRVWSVTPKKLRSVKQASDLSLIDKESDDVLERIMDEKTASELKILYGHSGPVYGASFSPDRNYLLSSSEDGTVRLWSLQTFTCLVGYKGHNYPVWDTQFSPYGYYFVSGGHDRVARLWATDHYQPLRIFAGHLADVNCTRFHPNSNYVATGSADRTVRLWDVLNGNCVRIFTGHKGPIHSLTFSPNGRFLATGATDGRVLLWDIGHGLMVGELKGHTDTVCSLRFSRDGEILASGSMDNTVRLWDAIKAFEDLETDDFTTATGHINLPENSQELLLGTYMTKSTPVVHLHFTRRNLVLAAGAYSPQ [TAF5],-0.0963,0.00763
MAALGHLAGEAAAAPGPGTPCASRGARLPGPVSSARNPSTVCLCPEQPTCSNADSRAHPLGDEGGTASKKQKNKKKTRNRASVANGGEKASEKLAPEEVPLSAEAQAQQLAQELAWCVEQLELGLKRQKPTPKQKEQAIGAIRTLRSKRTPLPRKRQLMHSLFGDYRAQMEAEWREALRALRAAAYSAQVQPVDGATRKKSQRVCRPRSIWRAKATLDMPDEEFRFNFF [C8ORF33],0.306,0.747
MAAPRWSASGPWIRGNGQGCGSLFTLVSKPFCAAAAASTAINAQRLAEKLRAQKREQDTKKEPVSTNAVQRRVQEIVRFTRQLQRVHPNVLAKALTRGILHQDKNLVVINKPYGLPVHGGPGVQLCITDVLPILAKMLHGHKAEPLHLCHRLDKETTGVMVLAWDKDMAHQVQELFRTRQVVKKYWAITVHVPMPSAGVVDIPIVEKEAQGQQQHHKMTLSPSYRMDDGKMVKVRRSRNAQVAVTQYQVLSSTLSSALVELQPITGIKHQLRVHLSFGLDCPILGDHKYSDWNRLAPQKLSVGTLKKLGLEQSKARYIPLHLHARQLILPALGSGKEELNLVCKLPRFFVHSLHRLRLEMPNEDQNENNEAKCLGAQ [RPUSD4],-0.22,0.0788
MAAPTPARPVLTHLLVALFGMGSWAAVNGIWVELPVVVKELPEGWSLPSYVSVLVALGNLGLLVVTLWRRLAPGKDEQVPIRVVQVLGMVGTALLASLWHHVAPVAGQLHSVAFLALAFVLALACCASNVTFLPFLSHLPPRFLRSFFLGQGLSALLPCVLALVQGVGRLECPPAPINGTPGPPLDFLERFPASTFFWALTALLVASAAAFQGLLLLLPPPPSVPTGELGSGLQVGAPGAEEEVEESSPLQEPPSQAAGTTPGPDPKAYQLLSARSACLLGLLAATNALTNGVLPAVQSFSCLPYGRLAYHLAVVLGSAANPLACFLAMGVLCRSLAGLGGLSLLGVFCGGYLMALAVLSPCPPLVGTSAGVVLVVLSWVLCLGVFSYVKVAASSLLHGGGRPALLAAGVAIQVGSLLGAVAMFPPTSIYHVFHSRKDCADPCDS [SLC52A2],-0.143,0.202
MAAPVGPVKFWRPGTEGPGVSISEERQSLAENSGTTVVYNPYAALSIEQQRQKLPVFKLRNHILYLIENYQTVVIVGETGCGKSTQIPQYLAEAGWTAEGRVVGVTQPRRVAAVTVAGRVAEERGAVLGHEVGYCIRFDDCTDQLATRIKFLTDGMLVREMMVDPLLTKYSVIMLDEAHERTLYTDIAIGLLKKIQKKRGDLRLIVASATLDADKFRDFFNQNETSDPARDTCVILTVEGRTFPVDIFYLQSPVPDYIKSTVETVVKIHQTEGDGDVLAFLTGQEEVETVVSMLIEQARALARTGMKRHLRVLPMYAGLPSFEQMKVFERVSRSVRKVIVATNVAETSITISGIVYVIDCGFVKLRAYNPRTAIECLVVVPVSQASANQRAGRGGRSRSGKCYRLYTEEAFDKLPQSTVPEMQRSNLAPVILQLKALGIDNVLRFHFMSPPPAQSMVQALELLYALGGLDKDCRLTEPLGMRIAEFPLNPMFAKMLLESGNFGCSQEILSIAAMMQIQNIFVVPPNQKSHAIRVHRKFAVEEGDHLTMLNIYEAFIKHNKDSKWCQEHFLNYKGLVRAATVREQLKKLLVKFQVPRKSSEGDPDLVLRCIVSGFFANAARFHSTGAYRTIRDDHELHIHPASVLYAEKPPRWVIYNEVIQTSKYYMRDVTAIESAWLLELAPHFYQQGTHLSLKAKRAKVQDP [DHX35],-0.538,0.261
MAAPVLLRVSVPRWERVARYAVCAAGILLSIYAYHVEREKERDPEHRALCDLGPWVKCSAALASRWGRGFGLLGSIFGKDGVLNQPNSVFGLIFYILQLLLGMTASAVAALILMTSSIMSVVGSLYLAYILYFVLKEFCIICIVTYVLNFLLLIINYKRLVYLNEAWKRQLQPKQD [VKORC1L1],-0.56,-0.107
